Laboratory results as given in patent publication US5786206.

Columns and labels:
[1] = target: apo A-I/B-100 fusion protein expressed by plasmid 137 (beta-galactosidase / apo A-I / apo B-100) (human); assay: ELISA, plate coated with 1/16 dilution of the 137 stock, HRPO-labeled AI-11 1:1000
[2] = target: control protein from cells containing plasmid pUR291 (beta-galactosidase without an apolipoprotein insert) (Escherichia coli (strain K12)) [β-galactosidase: P00722]; assay: ELISA, plate coated with 1/16 dilution of the pUR291 control stock, HRPO-labeled AI-11 1:1000
[3] = target: control protein from cells containing plasmid pUR291 (beta-galactosidase without an apolipoprotein insert) (Escherichia coli (strain K12)) [β-galactosidase: P00722]; assay: ELISA, plate coated with 1/2 dilution of the pUR291 control stock (395.0 ug/100 ul), HRPO-labeled AI-11 1:1000
[4] = target: apo A-I/B-100 fusion protein expressed by plasmid 137 (beta-galactosidase / apo A-I / apo B-100) (human); assay: ELISA, plate coated with 1/2 dilution of the 137 stock (0.95 ug/100 ul), HRPO-labeled AI-11 1:1000
[5] = target: apo A-I/B-100 fusion protein expressed by plasmid 137 (beta-galactosidase / apo A-I / apo B-100) (human); assay: ELISA, plate coated with 1/64 dilution of the 137 stock, HRPO-labeled AI-11 1:1000
[6] = target: control protein from cells containing plasmid pUR291 (beta-galactosidase without an apolipoprotein insert) (Escherichia coli (strain K12)) [β-galactosidase: P00722]; assay: ELISA, plate coated with 1/8 dilution of the pUR291 control stock, HRPO-labeled AI-11 1:1000
[7] = target: apo A-I/B-100 fusion protein expressed by plasmid 137 (beta-galactosidase / apo A-I / apo B-100) (human); assay: ELISA, plate coated with 1/4 dilution of the 137 stock, HRPO-labeled AI-11 1:1000
[8] = target: apo A-I/B-100 fusion protein expressed by plasmid 137 (beta-galactosidase / apo A-I / apo B-100) (human); assay: ELISA, plate coated with 1/32 dilution of the 137 stock, HRPO-labeled AI-11 1:1000
[9] = target: control protein from cells containing plasmid pUR291 (beta-galactosidase without an apolipoprotein insert) (Escherichia coli (strain K12)) [β-galactosidase: P00722]; assay: ELISA, plate coated with 1/4 dilution of the pUR291 control stock, HRPO-labeled AI-11 1:1000
[10] = target: control protein from cells containing plasmid pUR291 (beta-galactosidase without an apolipoprotein insert) (Escherichia coli (strain K12)) [β-galactosidase: P00722]; assay: ELISA, plate coated with 1/64 dilution of the pUR291 control stock, HRPO-labeled AI-11 1:1000
[11] = target: apo A-I/B-100 fusion protein expressed by plasmid 137 (beta-galactosidase / apo A-I / apo B-100) (human); assay: ELISA, plate coated with 1/8 dilution of the 137 stock, HRPO-labeled AI-11 1:1000
[12] = target: control protein from cells containing plasmid pUR291 (beta-galactosidase without an apolipoprotein insert) (Escherichia coli (strain K12)) [β-galactosidase: P00722]; assay: ELISA, plate coated with 1/32 dilution of the pUR291 control stock, HRPO-labeled AI-11 1:1000
[13] = target: control protein from cells containing plasmid pUR291 (beta-galactosidase without an apolipoprotein insert) (Escherichia coli (strain K12)) [β-galactosidase: P00722]; assay: ELISA, plate coated with 1/16 dilution of the pUR291 control stock, HRPO-labeled MB47 1:1000
[14] = target: apo A-I/B-100 fusion protein expressed by plasmid 137 (beta-galactosidase / apo A-I / apo B-100) (human); assay: ELISA, plate coated with 1/32 dilution of the 137 stock, HRPO-labeled MB47 1:1000
[15] = target: control protein from cells containing plasmid pUR291 (beta-galactosidase without an apolipoprotein insert) (Escherichia coli (strain K12)) [β-galactosidase: P00722]; assay: ELISA, plate coated with 1/32 dilution of the pUR291 control stock, HRPO-labeled MB47 1:1000
[16] = target: apo A-I/B-100 fusion protein expressed by plasmid 137 (beta-galactosidase / apo A-I / apo B-100) (human); assay: ELISA, plate coated with 1/64 dilution of the 137 stock, HRPO-labeled MB47 1:1000
[17] = target: control protein from cells containing plasmid pUR291 (beta-galactosidase without an apolipoprotein insert) (Escherichia coli (strain K12)) [β-galactosidase: P00722]; assay: ELISA, plate coated with 1/2 dilution of the pUR291 control stock (395.0 ug/100 ul), HRPO-labeled MB47 1:1000
[18] = target: apo A-I/B-100 fusion protein expressed by plasmid 137 (beta-galactosidase / apo A-I / apo B-100) (human); assay: ELISA, plate coated with 1/2 dilution of the 137 stock (0.95 ug/100 ul), HRPO-labeled MB47 1:1000
[19] = target: apo A-I/B-100 fusion protein expressed by plasmid 137 (beta-galactosidase / apo A-I / apo B-100) (human); assay: ELISA, plate coated with 1/4 dilution of the 137 stock, HRPO-labeled MB47 1:1000
[20] = target: apo A-I/B-100 fusion protein expressed by plasmid 137 (beta-galactosidase / apo A-I / apo B-100) (human); assay: ELISA, plate coated with 1/8 dilution of the 137 stock, HRPO-labeled MB47 1:1000
[21] = target: control protein from cells containing plasmid pUR291 (beta-galactosidase without an apolipoprotein insert) (Escherichia coli (strain K12)) [β-galactosidase: P00722]; assay: ELISA, plate coated with 1/4 dilution of the pUR291 control stock, HRPO-labeled MB47 1:1000
[22] = target: control protein from cells containing plasmid pUR291 (beta-galactosidase without an apolipoprotein insert) (Escherichia coli (strain K12)) [β-galactosidase: P00722]; assay: ELISA, plate coated with 1/8 dilution of the pUR291 control stock, HRPO-labeled MB47 1:1000
[23] = target: control protein from cells containing plasmid pUR291 (beta-galactosidase without an apolipoprotein insert) (Escherichia coli (strain K12)) [β-galactosidase: P00722]; assay: ELISA, plate coated with 1/64 dilution of the pUR291 control stock, HRPO-labeled MB47 1:1000
[24] = target: apo A-I/B-100 fusion protein expressed by plasmid 137 (beta-galactosidase / apo A-I / apo B-100) (human); assay: ELISA, plate coated with 1/16 dilution of the 137 stock, HRPO-labeled MB47 1:1000

Question: Which results are given for “monoclonal antibody AI-11, secreted by hybridoma AI-11 (ATCC HB 9201)”?
Answer: Optical density at 490 nm [1]: 0.14 OD 490 nm; Optical density at 490 nm [2]: 0.07 OD 490 nm; Optical density at 490 nm [3]: 0.1 OD 490 nm; Optical density at 490 nm [4]: 1 OD 490 nm; Optical density at 490 nm [5]: 0.12 OD 490 nm; Optical density at 490 nm [6]: 0.08 OD 490 nm; Optical density at 490 nm [7]: 0.6 OD 490 nm; Optical density at 490 nm [8]: 0.14 OD 490 nm; Optical density at 490 nm [9]: 0.08 OD 490 nm; Optical density at 490 nm [10]: 0.04 OD 490 nm; Optical density at 490 nm [11]: 0.2 OD 490 nm; Optical density at 490 nm [12]: 0.05 OD 490 nm

Question: With “monoclonal antibody MB47, secreted by hybridoma MB47 (ATCC HB 8746)” as the substance, how does the Optical density at 490 nm [13] read?
Answer: 0.04 OD 490 nm

Question: And the Optical density at 490 nm [14]?
Answer: 0.1 OD 490 nm

Question: And the Optical density at 490 nm [15]?
Answer: 0.02 OD 490 nm

Question: What about the Optical density at 490 nm [16] of the same substance?
Answer: 0.08 OD 490 nm

Question: What about the Optical density at 490 nm [17] of the same substance?
Answer: 0.1 OD 490 nm

Question: What about the Optical density at 490 nm [18] of the same substance?
Answer: 1.3 OD 490 nm

Question: What about the Optical density at 490 nm [19] of the same substance?
Answer: 0.46 OD 490 nm

Question: What about the Optical density at 490 nm [20] of the same substance?
Answer: 0.14 OD 490 nm

Question: And the Optical density at 490 nm [21]?
Answer: 0.12 OD 490 nm

Question: What about the Optical density at 490 nm [22] of the same substance?
Answer: 0.1 OD 490 nm

Question: What about the Optical density at 490 nm [23] of the same substance?
Answer: 0.01 OD 490 nm

Question: What about the Optical density at 490 nm [24] of the same substance?
Answer: 0.1 OD 490 nm
